Test results: the supplement of paper PMC10567573

B1: VPS39 (parent)
chain: ITEEKVCMVCKKKIGNSAFARYPN
B2: ZNF277 (parent)
chain: ILREELQKQRLREILEQQQQERND

Variants of: B1
Assay: protein stability index of a GFP-peptide fusion (GPS, HEK-293T) (PSI 1-6); higher = more stable
Details: c terminus: a fixed tail appended
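Further: lentivirally expressed fusions sorted by FACS into six bins by GFP to DsRed ratio, PSI derived from sequencing read proportions per bin multiplied by bin number.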

Protein stability index: each site, then its substitutions
R21: W 1.94; F 2.39; T 2.55
K11: W 1.69; N 1.81; A 2.19; R 1.98; Y 2.12; P 2.76; M 1.66; G 2.58; V 2.23; L 1.42; Q 2.29; T 2.2; S 1.7; H 1.74; D 3.21; F 1.54; E 2.75; C 1.42; I 1.85
C10: V 2.84; Y 2.64; W 2.59; N 4.14; K 2.77; M 2.94; S 4.14; L 2.38; P 3.97; R 3.96
A18: E 3.2; I 1.81; F 2.15; Q 2.41; H 2.73; P 2.19; C 2.37; S 3.04; G 3.02; W 2.08; M 2.34; L 2.4; R 2.26; N 2.99; T 2.52; V 2; D 3.65; Y 1.89; K 2.4
K12: T 1.77; Y 1.88; L 1.3; R 1.83; Q 2.25; W 2.18; H 2.28; M 1.64; P 2.25; F 1.68; G 1.97; N 2.8; E 2.46; C 2.93; D 2.63; V 1.74; A 2.28; S 2.36
A20: S 3.16; M 2.43; V 2.38; Y 2.31; N 2.32; P 2.62; T 2.73; L 2.09; I 3.49; Q 2.74; C 2.56; F 2.34; R 2.62; E 2.11; G 2.05; K 2.26; W 2.16; D 2.62; H 2.38
G15: P 2.45; S 2.54; V 2.86; I 2.8; H 2.02; Y 2; Q 2.99; A 1.39; N 2.37; E 2.78; L 2.31; R 2.34; K 2.55; C 2.98; T 2.81; D 2.46; M 2.23; W 2.35; F 2.35

Variants of: B2
Assay: as above
Details: c terminus: a fixed tail appended

Protein stability index: each site, then its substitutions
R3: L 2.82; Y 3.64; E 5.21; I 2.91; S 4.96; M 3.68; Q 4.69; H 4.46; D 5.06; F 3.4; V 4.01; A 4.3; K 4.64; P 5.31; G 5.05; W 2.56; N 4.37; T 4.36
E4: D 4.06; A 3.85; G 4.89; F 2.99; K 3.22; H 3.95; I 3.79
L2: Y 4.81; Q 5.61; C 3.94; F 4.55; V 4.73; E 5.51; W 3.79; A 5.13; P 4.86; N 5.57; R 5.03; G 5.11; S 5.33; H 5.24; M 4.21; D 5.63; K 5.45; I 4.41; T 5.04
I1: T 5.08; F 4.43; P 4.73; Y 4.75; N 4.99; W 4.19; M 4.66; A 4.59; G 4.93; V 4.4; K 4.24; C 4.79; L 4.09; E 4.93; H 4.89; S 5.12
